From patent US20220226473A1, “Nucleic acid nanocarrier drug and preparation method thereof, pharmaceutical composition and application thereof” (BAI YAO ZHI DA (BEIJING) NANOBIO TECHNOLOGY CO., LTD., priority 2018, published 2022)
Residue numbers refer to the chain shown, from its start. {Biotin} = biotin of the strand

B1: R-15: extension fragment deformation+core short-sequence RNA nanoparticle, SEQ ID NO: 120-122, a-strand 3′ biotin, 2′F (nucleic acid)
chain 1: GCGGCGAGCGGCGAGGAGCGUUGGGGCCGGAGGCCGG
chain 2: CCGGCCUCCGGCCCCUUCGGGGCCAGCCGCC
chain 3: GGCGGCAGGCCCCCAUAGCCCUCGCCGCUCGCCGC
modifications: chain 1: 2'-fluoro at CU, RNA at AG, 3' {Biotin}, backbone not given here; chain 2: 2'-fluoro at CU, RNA at AG, backbone not given here; chain 3: 2'-fluoro at CU, RNA at AG, backbone not given here; three-strand RNA nanoparticle
B2: R-17: extension fragment deformation+core short-sequence RNA nanoparticle, SEQ ID NO: 126-128, 3′ biotin, 2′F (nucleic acid)
chain 1: B1 chain 1
chain 2: B1 chain 2 with G20C, G21C
chain 3: B1 chain 3 with C11G, C12G
modifications: chain 1: 2'-fluoro at CU, RNA at AG, 3' {Biotin}, backbone not given here; chain 2: 2'-fluoro at CU, RNA at AG, backbone not given here; chain 3: 2'-fluoro at CU, RNA at AG, backbone not given here; three-strand RNA nanoparticle
B3: R-21: extension fragment deformation+core short-sequence RNA nanoparticle, SEQ ID NO: 138-140, 3′ biotin, 2′F (nucleic acid)
chain 1: B1 chain 1 with G15C, G24C
chain 2: B1 chain 2 with C14G, G21C
chain 3: B1 chain 3 with C11G, C21G
modifications: chain 1: 2'-fluoro at CU, RNA at AG, 3' {Biotin}, backbone not given here; chain 2: 2'-fluoro at CU, RNA at AG, backbone not given here; chain 3: 2'-fluoro at CU, RNA at AG, backbone not given here; three-strand RNA nanoparticle carrier
B4: R-20: extension fragment deformation+core short-sequence RNA nanoparticle, SEQ ID NO: 135-137, 3′ biotin, 2′F (nucleic acid)
chain 1: B1 chain 1 with G15C, G24C
chain 2: B1 chain 2 with C14G, G20C, G21C
chain 3: B1 chain 3 with C11G, C12G, C21G
modifications: chain 1: 2'-fluoro at CU, RNA at AG, 3' {Biotin}, backbone not given here; chain 2: 2'-fluoro at CU, RNA at AG, backbone not given here; chain 3: 2'-fluoro at CU, RNA at AG, backbone not given here; three-strand RNA nanoparticle carrier
B5: R-18: extension fragment deformation+core short-sequence RNA nanoparticle, SEQ ID NO: 129-131, 3′ biotin, 2′F (nucleic acid)
chain 1: B1 chain 1 with G16C, G23C
chain 2: B1 chain 2 with C15G, G21C
chain 3: B1 chain 3 with C11G, C20G
modifications: chain 1: 2'-fluoro at CU, RNA at AG, 3' {Biotin}, backbone not given here; chain 2: 2'-fluoro at CU, RNA at AG, backbone not given here; chain 3: 2'-fluoro at CU, RNA at AG, backbone not given here; RNA nanoparticle drug carrier
B6: R-19: extension fragment deformation+core short-sequence RNA nanoparticle, SEQ ID NO: 132-134, 3′ biotin, 2′F (nucleic acid)
chain 1: B1 chain 1 with G16C, G23C
chain 2: B1 chain 2 with C15G, G21C, G22C
chain 3: B1 chain 3 with C10G, C11G, C20G
modifications: chain 1: 2'-fluoro at CU, RNA at AG, 3' {Biotin}, backbone not given here; chain 2: 2'-fluoro at CU, RNA at AG, backbone not given here; chain 3: 2'-fluoro at CU, RNA at AG, backbone not given here; three-strand RNA nanoparticle carrier
B7: R-16: extension fragment deformation+core short-sequence RNA nanoparticle, SEQ ID NO: 123-125, 3′ biotin, 2′F (nucleic acid)
chain 1: B1 chain 1 with G16C, G23C
chain 2: B1 chain 2 with C15G, G20C, G21C
chain 3: B1 chain 3 with C11G, C12G, C20G
modifications: chain 1: 2'-fluoro at CU, RNA at AG, 3' {Biotin}, backbone not given here; chain 2: 2'-fluoro at CU, RNA at AG, backbone not given here; chain 3: 2'-fluoro at CU, RNA at AG, backbone not given here; three-strand RNA nanoparticle

Assay: Particle size measurement (DLS hydrodynamic size)
Assay type: physicochemical
Conditions: DLS hydrodynamic size
Source text: 1. Preparing a potential sample (conventional-sequence DNA self-assembly product D-7) and putting into a sample pool, opening a sample pool cover of an instrument, and placing the instrument;
2. opening software, and clicking a menu, so a manual measurement parameter setting dialog box appears;
3. setting a software detection parameter; and then
4. clicking Ok to complete the settings, when a measurement dialog box appears, clicking Start to start, a DLS measurement value result of a hydrodynamic size of the self-assembly product D-7 is shown below in Table 40: […]

Molecule	Mean particle size (nm)
B1	6.808 nm
B2	7.592 nm
B3	6.720 nm
B4	7,110 nm
B5	7.520 nm
B6	6.936 nm
B7	6.978 nm

Assay: TM value detection by solubility curve method (SYBR Green I)
Assay type: physicochemical
Conditions: RNA nanoparticles; temperature corresponding to ½ RFUmax in 20 to 90 DEG C.
Experimental: A solubility curve method is used to detect TM values of the 7 groups of the extension fragment deformation+core short-sequence RNA nanoparticles, and the samples are consistent with the potential samples.
(1) After the sample is diluted with ultrapure water, 5 μg of the diluted sample is mixed with 2 μL of SYBR Green I dye (diluted by 1:200), a final volume is 20 μL, and the dilution concentration is as follows:
(2) It is incubated for 30 min in the dark at a room temperature; and
(3) On-machine detection is performed, a program is set to start at 20 DEG C., the temperature rises per second from 0.1 DEG C. to 95 DEG C., and reading is performed every 5 s.
Due to the particularity of the RNA samples, a temperature corresponding to ½ RFUmax in a range of 20 to 90 DEG C. is used as a sample Tm value in this test.
A solubility curve method is used to detect TM values of the 7 groups of the extension fragment deformation+core short-sequence DNA nanoparticles, and the samples are consistent with the potential samples.
(1) After the sample is diluted with ultrapure water, 5 μg of the diluted sample is mixed with 2 μL of SYBR Green I dye (diluted by 1:200). a final volume is 20 μL, and the dilution concentration is as follows: […]

Molecule	TM value (° C.)
B1	57.5 °C
B2	55.2 °C
B3	65.0 °C
B4	59.5 °C
B5	54.5 °C
B6	54.0 °C
B7	53.8 °C

Assay: Electric potential (zeta potential) measurement of self-assembly products
Assay type: physicochemical
Conditions: result over 3 detections, at 25 DEG C.
Experimental: Measurement method: preparing a potential sample (the self-assembly product is dissolved in ultrapure water) and putting into a sample pool, opening a sample pool cover of an instrument, and placing the instrument;
opening software, clicking a menu MeasUre€ManUal, so a manual measurement parameter setting dialog box appears;
setting a software detection parameter;
and then clicking Ok to complete the settings, after a measurement dialog box appears, clicking start to start.
and then clicking Ok to complete the settings, after a measurement dialog box appears, clicking Start to start.
Measurement method: preparing a potential sample (the self-assembly product is dissolved in ultrapure water) and putting into a sample pool, opening a sample pool cover of an instrument, and placing the instrument:
Measurement result potential detection results of the 7 groups of the extension fragment deformation+core short-sequence RNA nanoparticles at 25 DEG C. are as follows:
setting a software detection parameter; and then
clicking Ok to complete the settings, after a measurement dialog box appears, clicking Start to start.
Measurement result potential detection results of the 7 groups of the extension fragment deformation+core short-sequence DNA nanoparticles at 25 DEG C. are as follows: […]

Molecule	Potential ZP, Experiment result
B1	−23.23 mV
B2	−23.50 mV
B3	−16.10 mV
B4	−17.90 mV
B5	−21.27 mV
B6	−18.30 mV
B7	−20.93 mV

Assay: Drug loading rate of nucleic acid nanoparticles (chemical loading, absorbance standard curve)
Assay type: physicochemical
Design: unit not given here
Conditions: chemical loading method of Embodiment 5
Source text: According to the chemical loading method (unless otherwise specified, the method is the same as that of Embodiment 5) of Embodiment 5, the RNA nanoparticles formed by the self-assembly of the previous R-15, R-16, R-17, R-18, R-19, R-20 and R-21 in Embodiment 9, and the DNA nanoparticles formed by the self-assembly of the D-8, D-9, D-10, D-11, D-12, D-13 and D-14 in Embodiment 10 are respectively used as doxorubicin loading carriers, doxorubicin loading rates measured are respectively as follows:
According to the chemical loading method (unless otherwise specified, the method is the same as that of Embodiment 5) of Embodiment 5, the DNA nanoparticles formed by the self-assembly of the previous D-10 and D-14 in Embodiment 10 are used as a daunorubicin loading carrier.
According to a chemical loading method of Embodiment 5 (unless otherwise specified, the method is the same as that of Embodiment 5, the same molar number of the epirubicin is used as a loading amount), nucleic acid nanoparticles (a molecular weight is 29550, it is similar to the RNA nanoparticles in Embodiment 1, and a difference is that a fluorescent label on a c-strand is Cy5) are used as a carrier, and respectively loaded with: epirubicin, methotrexate, pirarubicin, daunorubicin, […], 10-hydroxycamptothecin, aspirin and gemcitabine.
Herein, when a standard curve is drawn, the absorbance of the above drugs on the microplate reader is measured respectively. The absorbance of the epirubicin, methotrexate, pirarubicin, daunorubicin, […], 10-hydroxycamptothecin, aspirin and gemcitabine is respectively detected at the following wavelengths: 492 nm, 303 nm, 492 nm, 492 nm, 265 nm, 384 nm, 225 nm and 268 nm. The standard curves obtained correspondingly are respectively shown in FIG. 48a, FIG. 49, FIG. 50sa, FIG. 51, FIG. 52, FIG. 53, FIG. 54a and FIG. 55. […]

Molecule	doxorubicin loading rate
B1	20.5
B2	30.9
B3	20.1
B4	30.2
B5	34.1
B6	27.1
B7	29.4
